In paper PMC7708447, “Ultrasensitive antibody-aptamer plasmonic biosensor for malaria biomarker detection in whole blood”:

Key:
[1] = target: Plasmodium vivax lactate dehydrogenase (PvLDH) (Plasmodium vivax, UniProt Q4PRK9 1-316); assay: antibody-aptamer sandwich plasmon-enhanced fluorescence; details: protein: recombinant; chain copies: 4
[2] = target: Plasmodium falciparum lactate dehydrogenase (PfLDH) (Plasmodium falciparum, UniProt Q76NM3 1-316); assay: antibody-aptamer sandwich plasmon-enhanced fluorescence; PfLDH captured by anti-PLDH on AuNP array; spiked human blood; 0.1 uM aptamer; sandwich LOD 18 fM (not a Kd); association time constant 45 +/- 15 min; Aptamer step: PBS (10 mM NaCl, 10 mM NaH2PO4, 10 mM Na2HPO4, 1 mM MgCl2, pH 7.1), 0.1 uM Cy5-aptamer, 2 h in the dark; temperature not stated; analyte spiked in human blood; details: protein: recombinant; chain copies: 4; label: 5'-Cy5

B1: malaria 2008s aptamer (ssDNA)
DNA: CTGGGCGGTAGAACCATAGTGACCCAGCCGTCTAC
B1: no binding [1]; binds [2].
